In patent publication US20210388087A1 (Chugai, published 2021):

Molecular target: T1, Human CD3eg linker (human)
T1 construct: Single-chain construct; also called recombinant human CD3
T1 chain: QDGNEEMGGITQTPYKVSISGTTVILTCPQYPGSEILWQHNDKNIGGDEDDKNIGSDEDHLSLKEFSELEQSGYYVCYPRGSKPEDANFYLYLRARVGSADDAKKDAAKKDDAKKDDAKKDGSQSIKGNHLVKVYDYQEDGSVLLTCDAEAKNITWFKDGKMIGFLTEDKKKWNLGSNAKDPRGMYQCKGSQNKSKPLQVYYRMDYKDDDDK
Assay: SPR; fold vs parent H183/L072

Binder	fold change of affinity
H183/L072 VL T97V (antibody, name in Kabat numbering, V domains shown) VH: QVQLVESGGGLVQPGRSLRLSCAASGFTFSNAWMHWVRQAPGKGLEWVAQIKDKGNAYAAYYAPSVKGRFTISRDDSKNSIYLQMNSLKTEDTAVYYCHYVHYASASTVLPAFGVDAWGQGTTVTVSS VL: DIVMTQSPLSLPVTPGEPASISCQASQELVHMNRNTYLHWYQQKPGQAPRLLIYKVSNRFPGVPDRFSGSGSGTDFTLKISRVEAEDVGVYYCAQGTSVPFVFGQGTKLEIK	0.6 fold
H183/L072 VL V27cF (antibody, name in Kabat numbering, V domains shown) VH: QVQLVESGGGLVQPGRSLRLSCAASGFTFSNAWMHWVRQAPGKGLEWVAQIKDKGNAYAAYYAPSVKGRFTISRDDSKNSIYLQMNSLKTEDTAVYYCHYVHYASASTVLPAFGVDAWGQGTTVTVSS VL: DIVMTQSPLSLPVTPGEPASISCQASQELFHMNRNTYLHWYQQKPGQAPRLLIYKVSNRFPGVPDRFSGSGSGTDFTLKISRVEAEDVGVYYCAQGTSVPFTFGQGTKLEIK	0.5 fold
H183/L072 VL V27cH (antibody, name in Kabat numbering, V domains shown) VH: QVQLVESGGGLVQPGRSLRLSCAASGFTFSNAWMHWVRQAPGKGLEWVAQIKDKGNAYAAYYAPSVKGRFTISRDDSKNSIYLQMNSLKTEDTAVYYCHYVHYASASTVLPAFGVDAWGQGTTVTVSS VL: DIVMTQSPLSLPVTPGEPASISCQASQELHHMNRNTYLHWYQQKPGQAPRLLIYKVSNRFPGVPDRFSGSGSGTDFTLKISRVEAEDVGVYYCAQGTSVPFTFGQGTKLEIK	0.3 fold
H183/L072 VL V27cA (antibody, name in Kabat numbering, V domains shown) VH: QVQLVESGGGLVQPGRSLRLSCAASGFTFSNAWMHWVRQAPGKGLEWVAQIKDKGNAYAAYYAPSVKGRFTISRDDSKNSIYLQMNSLKTEDTAVYYCHYVHYASASTVLPAFGVDAWGQGTTVTVSS VL: DIVMTQSPLSLPVTPGEPASISCQASQELAHMNRNTYLHWYQQKPGQAPRLLIYKVSNRFPGVPDRFSGSGSGTDFTLKISRVEAEDVGVYYCAQGTSVPFTFGQGTKLEIK	0.4 fold
H183/L072 VL V27cD (antibody, name in Kabat numbering, V domains shown) VH: QVQLVESGGGLVQPGRSLRLSCAASGFTFSNAWMHWVRQAPGKGLEWVAQIKDKGNAYAAYYAPSVKGRFTISRDDSKNSIYLQMNSLKTEDTAVYYCHYVHYASASTVLPAFGVDAWGQGTTVTVSS VL: DIVMTQSPLSLPVTPGEPASISCQASQELDHMNRNTYLHWYQQKPGQAPRLLIYKVSNRFPGVPDRFSGSGSGTDFTLKISRVEAEDVGVYYCAQGTSVPFTFGQGTKLEIK	0.1 fold
H183/L072 VL V27cK (antibody, name in Kabat numbering, V domains shown) VH: QVQLVESGGGLVQPGRSLRLSCAASGFTFSNAWMHWVRQAPGKGLEWVAQIKDKGNAYAAYYAPSVKGRFTISRDDSKNSIYLQMNSLKTEDTAVYYCHYVHYASASTVLPAFGVDAWGQGTTVTVSS VL: DIVMTQSPLSLPVTPGEPASISCQASQELKHMNRNTYLHWYQQKPGQAPRLLIYKVSNRFPGVPDRFSGSGSGTDFTLKISRVEAEDVGVYYCAQGTSVPFTFGQGTKLEIK	1.1 fold
H183/L072 VL V27cE (antibody, name in Kabat numbering, V domains shown) VH: QVQLVESGGGLVQPGRSLRLSCAASGFTFSNAWMHWVRQAPGKGLEWVAQIKDKGNAYAAYYAPSVKGRFTISRDDSKNSIYLQMNSLKTEDTAVYYCHYVHYASASTVLPAFGVDAWGQGTTVTVSS VL: DIVMTQSPLSLPVTPGEPASISCQASQELEHMNRNTYLHWYQQKPGQAPRLLIYKVSNRFPGVPDRFSGSGSGTDFTLKISRVEAEDVGVYYCAQGTSVPFTFGQGTKLEIK	0.7 fold
H183/L072 VL V27cI (antibody, name in Kabat numbering, V domains shown) VH: QVQLVESGGGLVQPGRSLRLSCAASGFTFSNAWMHWVRQAPGKGLEWVAQIKDKGNAYAAYYAPSVKGRFTISRDDSKNSIYLQMNSLKTEDTAVYYCHYVHYASASTVLPAFGVDAWGQGTTVTVSS VL: DIVMTQSPLSLPVTPGEPASISCQASQELIHMNRNTYLHWYQQKPGQAPRLLIYKVSNRFPGVPDRFSGSGSGTDFTLKISRVEAEDVGVYYCAQGTSVPFTFGQGTKLEIK	1 fold

The next lines start with the values.

fold change of affinity	Binder
1.1 fold	H183/L072 VL V27cM (antibody, name in Kabat numbering, V domains shown) VH: QVQLVESGGGLVQPGRSLRLSCAASGFTFSNAWMHWVRQAPGKGLEWVAQIKDKGNAYAAYYAPSVKGRFTISRDDSKNSIYLQMNSLKTEDTAVYYCHYVHYASASTVLPAFGVDAWGQGTTVTVSS VL: DIVMTQSPLSLPVTPGEPASISCQASQELMHMNRNTYLHWYQQKPGQAPRLLIYKVSNRFPGVPDRFSGSGSGTDFTLKISRVEAEDVGVYYCAQGTSVPFTFGQGTKLEIK
0 fold	H183/L072 VL V27cS (antibody, name in Kabat numbering, V domains shown) VH: QVQLVESGGGLVQPGRSLRLSCAASGFTFSNAWMHWVRQAPGKGLEWVAQIKDKGNAYAAYYAPSVKGRFTISRDDSKNSIYLQMNSLKTEDTAVYYCHYVHYASASTVLPAFGVDAWGQGTTVTVSS VL: DIVMTQSPLSLPVTPGEPASISCQASQELSHMNRNTYLHWYQQKPGQAPRLLIYKVSNRFPGVPDRFSGSGSGTDFTLKISRVEAEDVGVYYCAQGTSVPFTFGQGTKLEIK
0.8 fold	H183/L072 VL V27cL (antibody, name in Kabat numbering, V domains shown) VH: QVQLVESGGGLVQPGRSLRLSCAASGFTFSNAWMHWVRQAPGKGLEWVAQIKDKGNAYAAYYAPSVKGRFTISRDDSKNSIYLQMNSLKTEDTAVYYCHYVHYASASTVLPAFGVDAWGQGTTVTVSS VL: DIVMTQSPLSLPVTPGEPASISCQASQELLHMNRNTYLHWYQQKPGQAPRLLIYKVSNRFPGVPDRFSGSGSGTDFTLKISRVEAEDVGVYYCAQGTSVPFTFGQGTKLEIK
0.8 fold	H183/L072 VL V27cT (antibody, name in Kabat numbering, V domains shown) VH: QVQLVESGGGLVQPGRSLRLSCAASGFTFSNAWMHWVRQAPGKGLEWVAQIKDKGNAYAAYYAPSVKGRFTISRDDSKNSIYLQMNSLKTEDTAVYYCHYVHYASASTVLPAFGVDAWGQGTTVTVSS VL: DIVMTQSPLSLPVTPGEPASISCQASQELTHMNRNTYLHWYQQKPGQAPRLLIYKVSNRFPGVPDRFSGSGSGTDFTLKISRVEAEDVGVYYCAQGTSVPFTFGQGTKLEIK
0.3 fold	H183/L072 VL V27cN (antibody, name in Kabat numbering, V domains shown) VH: QVQLVESGGGLVQPGRSLRLSCAASGFTFSNAWMHWVRQAPGKGLEWVAQIKDKGNAYAAYYAPSVKGRFTISRDDSKNSIYLQMNSLKTEDTAVYYCHYVHYASASTVLPAFGVDAWGQGTTVTVSS VL: DIVMTQSPLSLPVTPGEPASISCQASQELNHMNRNTYLHWYQQKPGQAPRLLIYKVSNRFPGVPDRFSGSGSGTDFTLKISRVEAEDVGVYYCAQGTSVPFTFGQGTKLEIK
1.2 fold	H183/L072 VL V27cR (antibody, name in Kabat numbering, V domains shown) VH: QVQLVESGGGLVQPGRSLRLSCAASGFTFSNAWMHWVRQAPGKGLEWVAQIKDKGNAYAAYYAPSVKGRFTISRDDSKNSIYLQMNSLKTEDTAVYYCHYVHYASASTVLPAFGVDAWGQGTTVTVSS VL: DIVMTQSPLSLPVTPGEPASISCQASQELRHMNRNTYLHWYQQKPGQAPRLLIYKVSNRFPGVPDRFSGSGSGTDFTLKISRVEAEDVGVYYCAQGTSVPFTFGQGTKLEIK
1 fold	H183/L072 VL V27cQ (antibody, name in Kabat numbering, V domains shown) VH: QVQLVESGGGLVQPGRSLRLSCAASGFTFSNAWMHWVRQAPGKGLEWVAQIKDKGNAYAAYYAPSVKGRFTISRDDSKNSIYLQMNSLKTEDTAVYYCHYVHYASASTVLPAFGVDAWGQGTTVTVSS VL: DIVMTQSPLSLPVTPGEPASISCQASQELQHMNRNTYLHWYQQKPGQAPRLLIYKVSNRFPGVPDRFSGSGSGTDFTLKISRVEAEDVGVYYCAQGTSVPFTFGQGTKLEIK
